# Measured values published in the DeepSol protein solubility set.
# Assay: soluble on expression in E. coli; label from the status in PepcDB or PDB records
row,Sequence,soluble on expression in E. coli
1,MAHHHHHHMVNTLLNYSESIQLGDELSNLLEFTREMNAYLRGTQVAESDVLREAHNSFAPTEFFVLHDETPDASDVYHFVSFVYKNGAVWELDGLQKGPILAADATDGNYKEKLVEVVQKRVIDKSAADNTGTGQGISFSLMAVVDDRLLQLEKEIEEAKAREEPTAYLAEQLEELRLQREKGRAENQRRRHNYVPMIVELLKALAEKGKLEGIVEEALAKKAASASSDRS,soluble
2,MSLSPLEMALLVHRGEFHLRELEPELPLEKFLKNADPKKTRKFLEKCGKEELERQKELIRKHNVKLVSFWEDDYPQHLREIRYPPAVLFVRGDAELLKEKCVGVVGTRRPTSYGVNVTKRFVKLLSEYFVIVSGMAFGIDSVAHKEALSSGGKTVAVLGTGVDVVYPRSNERLFHEIVKNGCVVSEYPMGTRARKHHFPARNRIIAGLSDAIIVTEAPIKSGALITVKFALESGRDVFAVPGDIDRKTSEGTNYLIKSGAYPLTDEEDLETHFGIRRIASPSLDDDKKKIYDLLRSSPKTVDELVEELGWSVSEVLRVISEMELMGMIWFDGGAYRLLGEGHHHHHH,soluble
3,MGSDKIHHHHHHMFTRRFIPVVQSTKQNIGKYVRKDARFTLLTYNMLSPSYMWPQVYTYVAEPYKNWSYRHRLLEKELLNTFKADIMCLQEMTARDYEDYWHDSIGVDVNYGSKFISKTPPKYWKKPVKDMDGVSIFYNLAKFDFISSSGIYLNQLLNVFNQRELKYLYNKKVTLTDGASNVIGEDSLLDVLKGKNQVCLFVSLRHKETGTIFVVLNTHLYWKYDEVKLTQCMIIMRELSKIIKQLLPGDVKGQERVKILFTGDLNSTRDSLVVNFLQGQIVSHGDLNLINPMRPYLDRCVYDDIPKDYFVHTCYSGKLKGIFDYVWYHDSDFLLTKILTGNEVSDELLASNQLGLPNENHPSDHIPLLTEFKIL,not soluble
4,MRFLFSLIGLVYSSLIKLAVPFNPKARMMVRGRWKVWRQLREGIVPGGRYIWFHAASLGEFEQGRPMIERIRSEYPDYRIVLTFFSPSGYEVRKNYEGADVIVYLPADRLPRVRKFLDLVKPEMAIFIKYDFWPCFLTELERRQIPTYLVSSIFRPSQLFFRWYGGAYKRLLHCFTHIFVQDKASRLLLEKHGIDHVSVAGDTRFDRVISVYEARKSLPLIERFAASVPEDGLVIVGGSSWPPDEEILVRYFNRNPKIKLILAPHEIDKEHLLQIISHIRRPFIRLSEATESDIARQDCLIVDSFGLLSSIYRYGQVAFIGGGFGKGIHNTPEAAVYGIPVIFGPRYEKFKEARELIDVGGGFSVSSAEEFGNLIKRIQTDKAYRDAASRAAADYIRSNAGATGYIVHRIMKLEHHHHHH,soluble
5,TDLVAVWDVALSDGVHKIEFEHGTTSGKRVVYVDGKEEIRKEWMFKLVGKETFYVGAAKTKATINIDAISGFAYEYTLEINGKSLKKYMEDRSKTTNTWVLHMDGENFRIVLEKDAMDVWCNGKKLETAGEFVDDGTETHFSIGNHDCYIKAVSSGKRKEGIIHTLIVD,not soluble
6,MAALTKVKLCQLDDLMPFIGATVLIEGERVALFYIPDSGVYAVQDWDPIGKAYVMSRGIVGDINGEMCVASPLYKQHFSLKSGQCLEDEAHCLKTWRVTVDDNQVCYLAKELEHHHHHH,soluble
7,MNKTILALDTATEACSVALLHNGNITTLDELSPRNHTQRILPMVDELLSQANISIKQVDVLAFGRGPGSFTGVRVGVSVAQGLALGANLPVVAISNLLAMAQAAYQQLRANNVIALIDARMNEVYFAQYQRIGEHWHTIVEEQVCSPETAIAQMKINDNSVVVGTGWAAYPQFYVAKLPLSVSDISLPSAKDMLELALKAVENGELQTALDIEPIYLRNEVTWQKLPHKRLEHHHHHH,soluble
8,MNGASPAHSLVSTTAVAGGGGSSGAAAGLDDFHFPPDIPSMQERKDEAMRVLKADLMTELDKEVKSLEEDSWMFEGPRSRIHLISRRGNFLKKGGEVKLW,not soluble
9,MRKMADPLVPKEALEWFKSKGIKPGFDYRDVWKEEQANAFTVAKMLNADLLVEVKQLVEDAIGQGQTFEQFRDILKPLLVKSGWWGVQTMQDPLTDETKLVQLGSEGRIKTIYKTNMRTARSAGQWERIQRTKRTMPYLLYQLGPSEQHRIEHLKWNNTLLPADDPWWDVHMTPNGWGCKCWIRQVSQYEADKLIAAGTVKTTVPASKNKQWVNRRTGEVEVLPEGIDPGWNYNPGKNREKMLAADLALKESRMRQTLANGS,soluble
10,MFMKYALFPGCKIAFERPDLELAMREVLTALDVPFEYLSDFSCCPTWASVPSFDIEAWLAISARNISLAEEKGLDIVVGCGDCYSVLNHARDMLKREEWRERVNRILAKVGRVYRGTTKIYHIIHLLEERKIKKNLKHRLNGFVAGVQPGCHLLWPAKIFDAKEENPFFPERLKKLVEAMGAETPHYSRLEYCCGNHIDIVDYEKFLDFVQLKLQSLKEEIDPDFIVTACSTCFIQLDEGQKRLKRLGRIDYEIPVFHFPQLLAICLGSNPEKVARISSVDRSKIISEILEGRE,not soluble
11,MSLGTNKDYIEYVHKVYDYLHTIPEKGFEEYKTSEFVLKELEKMGFENINKGVAGTGIIVTIDSKKEGPVFAIRADMDALEFIIDGEKKMIHACGHDGHTSMLLTAAKLIKERNLVKRGKLKILFQPGEEKLYGALRVIDSGLLDDVEEMVGMHLRPGQDCRLGKAIPAMYHCASCIMEFTIKGITCHGSKPHLGVNAVDAVCLAVNAINAIRVNPAIPNSIKVTNISVKGETYNNIPDEAFMALDIRAESNDIIEELKEKAIHAAKTAVSSINAEAVLISKDGVPAAEFDEELVNLAEETIKDVLGADASIGIFKNSGGEDFHYYTQKLKCKTTYIGLGADATPGFHNPNVTFDTKALEYGVDIWCRLVEKRLGEGHHHHHH,soluble
12,MERILEKVRAKSEIPVYDKSIENVLSAILTTNDFWKIVDLSEEPLPLVADIIRILEEEGLVKISNGIEFTEKGNEFIKSYGIGAKDNSVCECCEGRGVSLKNYQDLLERFKEIVKNRPMPKHEYDQGFVTPECTISRIALMNSRGDLFNKDVLVLGDDDLTSIALMLSNLPKKIVVVDIDDRLINFIKEVAEQLNYKNIEVITLDLRKPLPEKYSRAFDTFITDPPETVYAVKTFIGRGISALKGERRAGYFGITRRESSLDKWREIQRTLINDFNVVITDIIRNFNHYVNWGYEEETRAWKLAPVKKKPEDIWYKSYMFRIETLKDSRGFEEEVDVGDELYNDAESSTT,not soluble
13,MGSDKIHHHHHHMTTRILICDDSALARKQMAKALPPGLADDILFAGDGKEALTILRDQKAELLFLDLNMPELDGYQVLEHIRSEDLPVLTIVVSGDIQPEARERVRKLGAIDFIKKPTDTGVVSRLLKEYGFYRPSELEDTALNDASLHSREAAAPEISVSLSDYLQEISNVAMGRSSDLLARLLKVFVKQPIPKVAFIANSELHMAISAAQRAENYSAVCQGFTGAGIAGEALLLFEDASFREMAELLHYDVLEGESVNVEVLMDMSSILFGAFINGIGDQLDLKLGLGHPTVLGQHRPVNELLDHHSKREEQLLCIEISYALENRDIRCNMLILLTEDSIPFLEKRLAYLVD,not soluble
14,MPGITFKEDANERGRQIEHWPLLKNGSIFVIADDGTRYFQEDAKHRHGHVYTHGSWLIPMNNQHPYLIFDQTQYDAFKQEESQAGQLPYPKFMTKLVSAPTIAQLAAKLGVPANNLQQTVTDFNHYTEVGRDFEFGRDPQTMRQLDDGPYYAIAALEHHHHHH,soluble
15,MHFKRVVKWGLNMYQNQRIKDKINILGVNFDNTTMLEMLENIKQFISSNTDDNLFIVTANPEIVDYATEHELYRNLINQADYVVPDGTGIVKASKRLKQPLKRRVPGIELLEECLKIAHVSHQRVYLLGSKNEIVETAEKKLQSQYPNIHFAHHHGYIHLEDETVIKRITSFNPDYIFVGMGFPKQEQWIQKHKDKFKHTVMMGVGGSFEVFSGSKKRAPQIFRKLNIEWVYRVLIDWKRIGRMISIPKFMLKVAIQKYKMKSK,not soluble
16,MSLIKWGFIGCGEVTKTKSGPAFQKVEHSEVVAVMSRDGAKAKAYAKERGIRKWYDDAQELIDDPEVNAIYIATPPSSHATYAIMAMKAGKPAYIEKPMAVTYEECTRINRISKETGVPCFVAYYRRYLPYFQKVKEMVENGSIGNVINVQVRFAQPPRDLDYNRENLPWRVQADIAGGGYFYDLAPHQIDLLQDMFGCILEASGYKSNRGGLYPAEDTLSACFQFDNGLVGSGSWCFVAHDSAREDRIEIIGDKGMICFSVFTYEPIGLHTERGREEICIGNPEHVQQPLIQAVVDHLLGKSVCSCDGESATLTNWVMDKILGKLEGHHHHHH,soluble
